Article PMC3317640, “A Novel Enzymatic System against Oxidative Stress in the Thermophilic Hydrogen-Oxidizing Bacterium Hydrogenobacter thermophilus” (PLoS ONE, 2012)

Legend:
[1] = substrate: CC(C)(C)OO; test: hydroperoxide removal, FOX1 (xylenol orange) assay, Michaelis-Menten; type: biochemical, Hydrogenobacter thermophilus; details: 0.5 mM NADPH and FNR as electron donor system, 50 mM sodium phosphate pH 6.0, 50°C, anaerobic
[2] = substrate: CC(C)(OO)c1ccccc1; test: as above; type: biochemical, Hydrogenobacter thermophilus; details: 0.5 mM NADPH and FNR as electron donor system, 50 mM sodium phosphate pH 6.0, 50°C, anaerobic

B1: ferriperoxin (Fpx) (Hydrogenobacter thermophilus TK-6) (protein)
chain: MKSLAGTKTLECLKHAFAGESQANRRYLYFARKADIEGYPDIANVFRETAEGETGHAFGHLEFLEKYGGGDPATGKPIGSMEQNLEAAIAGETYEYTEMYPGFAKTAREEGFDDIAEWFETLARAEKSHAGRFQKALESLKA
notes: full-length untagged (own start and stop codon, pET21c NdeI-HindIII), E. coli BL21(DE3); N-terminus MKSLAGTKTL; diiron holoprotein
B1 gave a Km [1] of 1300 ± 300 µM and a Km [2] of 1100 ± 200 µM.
